This series concerns the molecule itself. Kind of series: self-interaction chromatography; the same protein immobilised on Toyopearl particles (surface coverage ~30-40%) and injected (5-15 mg/mL, 10 uL, 0.5 mL/min); b2 from first-moment retention; increasing ionic strength of different sodium salts; 20 mM sodium phosphate pH 7.0 for lactoferrin, catalase and con A, 50 mM sodium acetate pH 4.5 for lysozyme.

B1: catalase from bovine liver (enzyme, UniProt P00432 1-527, looked up)
chain: MADNRDPASDQMKHWKEQRAAQKPDVLTTGGGNPVGDKLNSLTVGPRGPLLVQDVVFTDEMAHFDRERIPERVVHAKGAGAFGYFEVTHDITRYSKAKVFEHIGKRTPIAVRFSTVAGESGSADTVRDPRGFAVKFYTEDGNWDLVGNNTPIFFIRDALLFPSFIHSQKRNPQTHLKDPDMVWDFWSLRPESLHQVSFLFSDRGIPDGHRHMNGYGSHTFKLVNANGEAVYCKFHYKTDQGIKNLSVEDAARLAHEDPDYGLRDLFNAIATGNYPSWTLYIQVMTFSEAEIFPFNPFDLTKVWPHGDYPLIPVGKLVLNRNPVNYFAEVEQLAFDPSNMPPGIEPSPDKMLQGRLFAYPDTHRHRLGPNYLQIPVNCPYRARVANYQRDGPMCMMDNQGGAPNYYPNSFSAPEHQPSALEHRTHFSGDVQRFNSANDDNVTQVRTFYLKVLNEEQRKRLCENIAGHLKDAQLFIQKKAVKNFSDVHPEYGSRIQALLDKYNEEKPKNAVHTYVQHGSHLSAREKANL
notes: catalase from bovine liver, MW 250 kD, pI 5.4; Immobilised copy is coupled to Toyopearl AF-Amino-650M particles with EDC and NHS; source: bought: Sigma Aldrich (C9322)
Consider B1, for which the binding result is on record as “binds”.

Source of the values: article PMC4644993, “The second virial coefficient as a predictor of protein aggregation propensity: A self-interaction chromatography study” (European Journal of Pharmaceutics and Biopharmaceutics, 2015).
